Positions count from the first letter of the chain named. Read-outs that look alike come from different tables or passages of the source.
How the values were obtained:
[1] = biological target: T1, human CD39 (full length, on cells) (human, UniProt P49961 1-510); test: cell-based or functional assay
T1 sequence: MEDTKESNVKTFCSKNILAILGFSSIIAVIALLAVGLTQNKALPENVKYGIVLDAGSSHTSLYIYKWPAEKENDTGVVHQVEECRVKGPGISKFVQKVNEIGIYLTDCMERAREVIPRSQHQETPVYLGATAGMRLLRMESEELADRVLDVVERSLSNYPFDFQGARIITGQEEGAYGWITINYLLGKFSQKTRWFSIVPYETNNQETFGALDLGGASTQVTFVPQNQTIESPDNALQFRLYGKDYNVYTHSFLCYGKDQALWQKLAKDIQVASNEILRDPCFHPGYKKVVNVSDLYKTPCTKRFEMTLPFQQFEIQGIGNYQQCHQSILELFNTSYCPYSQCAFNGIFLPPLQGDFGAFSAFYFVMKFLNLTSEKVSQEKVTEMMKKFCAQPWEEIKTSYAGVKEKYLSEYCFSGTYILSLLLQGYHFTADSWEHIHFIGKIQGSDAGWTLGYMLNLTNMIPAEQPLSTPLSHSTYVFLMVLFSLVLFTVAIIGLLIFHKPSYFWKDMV

[2] = biological target: T2, cynomolgus CD39 (full length, on CHOK1-cynoCD39 cells) (cynomolgus monkey, UniProt A0A7N9DGH8 1-510); test: FACS, CHOK1-cynoCD39 cells
T2 construct: whole, on cells; also called cCD39
T2 sequence: T1 sequence with V47I, F94Y, V221I, I230T, I329V, K368N, A391S, F489V, T490I
Source text: FACS were used to determine binding of the antibodies to cell lines expressing CD39 naturally (SK-MEL-28) or recombinantly (CHOK1-hCD39, CHOK1-cynoCD39, and CHOK1-mCD39), or with cells lacking CD39 expression (CHOK1-blank) as a negative control.
(§1) CHOK1-hCD39, CHOK1-cCD39, CHOK1-mCD39 and CHOK1-blank cells were maintained in culture medium according to ATCC procedure. Cells were collected and re-suspended in blocking buffer at a density of 3×10⁶ cells/ml. Cells were transferred to 96 well FACS plates at 100 μl/well (3×10⁵ cells/well), the plates were centrifuged and washed twice with FACS buffer (PBS, 1% FBS, 0.05% Tween-20). 4-folds serial dilution of anti-CD39 antibodies were prepared in FACS buffer starting from 30 μg/ml. Reference antibody 9-8B and mouse/human control IgG were used as positive and negative controls, respectively. Cells were re-suspended in 100 μL/well diluted antibodies, and the plates were incubated at 4° C. for 60 min. […] The plates were washed with FACS buffer, and cells were re-suspended in 100 μL/well of PBS. Cells were then analyzed with FACSVerse™ and mean fluorescence intensity were determined. Full binding curves were generated on the CD39 expressing cells by testing a range of antibody concentrations. Apparent affinity was determined for each antibody using Prism software.

[3] = biological target: T1, human CD39 (full length, on cells); test: FACS competition on CHOK1-hCD39; competitor 9-8B-Alexa488
Experimental: (§2) Anti-CD39 antibodies were labeled using Alex488 labeling kit and were diluted in a series of concentrations, before mixing with CHOK1-hCD39 cells to test binding EC₅₀using FACS. The non-labeled antibodies were tested for their blocking efficacy to the labelled ones. Briefly, mononuclear CHOK1-hCD39 cells were prepared to 2×10⁶/ml and plated into 96 well at 50 μl/well, then mixed with antibodies gradients to final volume at 100 μl, and then equal volume of Alex488 label antibodies were added at two folds EC80 concentration. 96 well plates were incubated at 4° C. for 1 hour, and spun down and washed 3 times with 200 μl FACS buffer. The FACS analysis was performed on FACScelesta machine and data was analyzed by Flowjo software. The blocking percentages were calculated and those having above 80% competition rate were allocated into one epitope group, compared with the non-competing well (Alex488 labeled antibody only).
(§3) Based on the competition results, the 4 anti-CD39 hybridoma antibodies (mAb14, mAb19, mAb21, mAb23) can be grouped into 4 different epitope groups, as shown in Table 11.

[4] = biological target: T1, human CD39 (full length, on cells); test: FACS competition on CHOK1-hCD39; competitor mAb19-Alexa488
Experimental: as §2, §3

[5] = biological target: T1, human CD39 (full length, on cells); test: FACS, SK-MEL-28 cells
Experimental: Similarly, human CD39 expressing cells SK-MEL-5, SK-MEL-28 or MOLP-8, were incubated with a gradient concentration of anti-CD39 antibodies for 30 minutes at 4° C. Cells were washed 3 times using FACS buffer and next incubated with fluorescence labelled secondary antibody (goat-anti-mouse IgG or goat anti-human IgG) for 30 minutes at 4° C. Cells were washed 3 times and then re-suspended in FACS buffer and analyzed by flow cytometry analysis on BD Celesta. Data plotted and analyzed using GraphPad Prism 8.02.
Binding affinity of the humanized antibodies hu23.H5L5 and hu14.H1L1 were tested on different cells by FACS following the similar method as described in Example 3.2.
Reference antibodies T895 and 1394 were tested in parallel as control antibodies. As shown in FIG. 12 and summarized in Table 23, both antibodies hu23.H5L5 and hu14.H1L1 bound to human and cynomolgus CD39 expressing cells in a dose-dependent manner and with similar affinity by EC₅₀ at a sub-nanomolar or nanomolar level. Neither of them recognized mouse CD39 in the FACS study. Maximum signal (mean fluorescence intensity, MFI) differed between cells for each antibody may result from their different expression level.

[6] = biological target: T2, cynomolgus CD39 (full length, on …); test: FACS, CHOK1-cynoCD39 cells; remark: listed apart in the source
Experimental: as §1, with “software. […]” for “software.”
Reference antibodies T895 and 1394 were tested in parallel as control antibodies. […] Maximum signal (mean fluorescence intensity, MFI) differed between cells for each antibody may result from their different expression level.

B1: Antibody 9-8B (antibody, V domains shown)
VH: QIQLVQSGPELKKPGETVKISCKASGYTFTHYGMNWVKQAPGKGLKWMGWINTYTGELTYADDFKGRFAFSLETSASTAYLQINNLKNEDTATYFCARRAYYRYDYVMDYWGQGTSVTVSS
VL: DIVMTQSQKFMSTSVGDRVSVTCKASHNVGTNVAWYQQKPGQSPKALIYSASYRYSGVPGRFTGSGSGTDFTLTISNVQSEDLAEYFCHQYNNYPYTFGGGTKLEIK
SK-MEL-28 cell based ATPase inhibition % at 10 nM [1]: 21%
EC50 [2]: 1.6 nM
blocking percentage [3]: 98%
blocking percentage [4]: 19%

B2: hu23.H5L5 (antibody, V domains shown)
VH: QVQLVQSGAEVKKPGASVKVSCKASGYNLKDTFLHWVRQAPGQGLEWMGRIDPANGNIKYDPKFQGRVTITADTSANTAYMELISLRSEDTAVYYCANSPYYYGSGYRIFDVWGQGTTVTVSS
VL: QIVLTQSPATLSLSPGERATLSCSAFSSVNYMHWYQQKPGQAPRLLIYTTSNLASGIPTRFSGSGSGTSYTLTISSLEPEDFAVYYCQQRSTYPFTFGQGTKLEIK
notes: humanized c23
EC50 [5]: 0.99 nM
EC50 [6]: 3.38 nM

B3: mAb14 (antibody, V domains shown)
VH: EVKLEESGGGLVQPGGSMKLSCVASGFTFSKYWMNWVRQSPEKGLEWVAEIRLKSNKYGTHYAESVKGRFTISRDDSKNNVYLQMNNLRPEDTGIYYCTTQLDLYWFFDVWGAGTTVTVSS
VL: DIVMTQSPAILSVTPGDRVSLSCRASQSISDYLHWYQQKSHESPRLLIKYASQSISGIPSRFSGSGSGSNFTLSINSVEPEDVGVYFCQNGHSLPLTFGAGTKLELR
notes: mouse hybridoma antibody
SK-MEL-28 cell based ATPase inhibition % at 10 nM [1]: 57%
EC50 [2]: 3.4 nM
blocking percentage [3]: -11%
blocking percentage [4]: 6%

B4: Antibody T895 (antibody, V domains shown)
VH: EVQLQQSGPELVKPGASVKMSCKASGYTFTDYNMHWVKQSHGRTLEWIGYIVPLNGGSTFNQKFKGRATLTVNTSSRTAYMELRSLTSEDSAAYYCARGGTRFAYWGQGTLVTVSA
VL: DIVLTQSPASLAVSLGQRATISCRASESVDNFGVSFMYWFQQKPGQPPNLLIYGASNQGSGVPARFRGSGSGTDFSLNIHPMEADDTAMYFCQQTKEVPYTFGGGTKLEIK
notes: also called 31895
EC50 [5]: 0.36 nM
EC50 [6]: 4.19 nM

— patent publication US20210388105A1 (ELPISCIENCE SUZHOU BIOPHARMA, published 2021)
